Measured values reported in PMC11650696.

Experiments:
[1] = molecular target: TLR5 (UniProt O60602)
[2] = molecular target: TLR5 (UniProt O60602); remark: listed apart in the source
[3] = molecular target: Naip5 and Naip6 (Naip5/6) (mouse (endogenous in BMDMs))

Sequence of UniProt O60602 (O60602 21-858): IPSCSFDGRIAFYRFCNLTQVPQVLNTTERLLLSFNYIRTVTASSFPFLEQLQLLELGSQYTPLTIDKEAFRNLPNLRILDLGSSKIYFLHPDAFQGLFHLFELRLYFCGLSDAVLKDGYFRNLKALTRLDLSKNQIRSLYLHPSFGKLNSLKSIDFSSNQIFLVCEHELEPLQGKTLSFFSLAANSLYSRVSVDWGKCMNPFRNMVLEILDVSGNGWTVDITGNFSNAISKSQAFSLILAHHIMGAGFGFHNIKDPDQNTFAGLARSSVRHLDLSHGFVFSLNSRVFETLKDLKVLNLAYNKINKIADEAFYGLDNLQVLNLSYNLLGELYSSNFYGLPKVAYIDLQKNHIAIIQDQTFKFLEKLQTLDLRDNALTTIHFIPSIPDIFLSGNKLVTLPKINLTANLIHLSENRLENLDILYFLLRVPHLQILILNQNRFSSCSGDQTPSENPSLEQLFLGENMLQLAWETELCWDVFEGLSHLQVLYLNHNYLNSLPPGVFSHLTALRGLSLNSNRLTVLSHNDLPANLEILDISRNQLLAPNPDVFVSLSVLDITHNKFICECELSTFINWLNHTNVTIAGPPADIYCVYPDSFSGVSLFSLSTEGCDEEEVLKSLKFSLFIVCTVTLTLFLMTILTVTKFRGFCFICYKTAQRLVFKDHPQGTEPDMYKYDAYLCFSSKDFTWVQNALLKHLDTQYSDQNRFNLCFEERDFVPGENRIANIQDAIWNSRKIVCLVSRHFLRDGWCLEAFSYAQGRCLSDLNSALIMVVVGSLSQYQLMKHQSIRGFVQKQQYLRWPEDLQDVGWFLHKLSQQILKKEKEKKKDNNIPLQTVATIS

| Substance | TLR5 EC50 (NF-κB luciferase reporter assay, stably transfected CHO K1 cells) [1] [ng/mL] | TLR5 stimulatory activity, EC50 (NF-κB luciferase reporter assay, stably transfected CHO K1 cells) [2] [ng/mL] | Inflammasome EC50 (IL-1β secretion of LPS-primed mouse BMDMs after transfection of the protein) [3] [ng/mL] |
| --- | --- | --- | --- |
| FliC^ΔD3 (from UniProt P06179 1-495) (natural protein) | 0.1 | – | – |
| FliC flagellin monomers isolated from S. Typhimurium strain SL1344 (ΔflgM) (from UniProt P06179 1-495) (natural protein) | 1.2 | 1.1 | 2 |
